Results on three substances are retold here after paper PMC5148741.

By IC50 is commonly meant the concentration that inhibits the measured activity by half. Low readings indicate higher potency, high ones lower potency. What is called Kd is the free concentration of one partner at which half of the binding sites on the other are occupied at equilibrium, for simple one-to-one binding. The low end stands for tighter binding, the high end for weaker binding.

Common to all, as to experiment: fluorescence polarisation
For orientation: Polarisation of emitted light reports the rotation of a fluorescent probe.

The target in one experiment is MBP-TbtD.
The target in the next experiment is TbtF.
For experiment [1], the target named is RRE of TbtF (residues 1–85).

Consider TbtA M(−27)A (peptide), for which the results for the IC50 with MBP-TbtD and with TbtF were 1090 nM and 2750 nM, respectively. For TbtA P(−28)A (peptide) the same measures were 2660 nM and 850 nM.

On to “synthetic TbtA leader peptide derivatized with fluorescein isothiocyanate (FITC) at the N-terminus”, for which, in experiment [1], the Kd was 100 nM.
